These results are taken from the nanobody polyreactivity screen of Harvey et al. (2022).

This data set can be described thus: yeast display, Sf9 membrane polyspecificity reagent, FACS + sequencing; frameworks hold sequencing errors. An outline of the steps: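 Synthetic nanobody libraries on Saccharomyces cerevisiae BJ5465 were galactose-induced for 36–48 hours, stained 1 hour at 4 °C with 10% biotinylated, detergent-solubilized Sf9 membrane reagent and enriched on streptavidin microbeads. FACS then separated cells into low and high (top ~1%) gates by anti-HA (expression) and streptavidin (reagent binding) fluorescence. Genes were colony-PCR amplified, MiSeq 2 × 250 sequenced and CDR-length filtered. A clone's polyreactivity label is that of its gate of origin.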
For “QVQLVESGGRLVQAGGSLRLSCAASGIIFWVNAMGWYRQSTGKESELVAAISGRGGRTYYVDSVKGRFTISRDNAKNTVYLQMNSLKPEDTAVYYCNTVPYPAYLARMDYWGQGTQGTVSS”, the “polyreactivity (PSR sort gate)” value is “high polyreactivity”.

For “QVQLVESGGRLVQAGGSLRLSCAASGITFGVYAMGWYRQAPGKERELVAAISRRGAATYYADSVKGRFTISRDNAKNTVYLQMNSLKPEDTAVYYCAAYLARRQYDYWGQGTHVTVSS”, the “polyreactivity (PSR sort gate)” value was “high polyreactivity”.

With “QVQLVESGGRLVQAGGSLRLSCAASGLTFDPNDMGWYRQAPGKERELVAAISWSSGSTYYADSVKGRFTISRDNAKNTVYLQMNSLKPEDTAVYYCAAYFTLLFGTELYDYDYWGQGTQVTVSS”, the “polyreactivity (PSR sort gate)” value is “high polyreactivity”.

On to “QVQLVESGGRLVQAGGSLRLSCAASGLTFGSYAMGWYRQAPGKESELVAGISARAGRTYYADSVKGRFTISRDNAKNTVYLQMNSLKPEDTAVYYCAARVYSRYHTKGFSNYQYDYWGQGTQVTVSS”, for which the “polyreactivity (PSR sort gate)” value is “high polyreactivity”.

For “QVQLVESGGRLVQAGGSLRLSCAASGLTITRNAMGWYRQAPGKERELVAAISWSGGSTYYADSVKGRFTISRDNAKNTVYLQMNSLKPEDTAVYDCAAEPYKQYTGYYYSGFEYWGQGTQVTVSS”, the “polyreactivity (PSR sort gate)” value was “high polyreactivity”.

Regarding “QVQLVESGGRLVQAGGSLRLSCAASGLTLFRYAKGWYRTAPGKERELVAAIDYGGGTYYADSVKGRFTISRDNAKNTVYLQMNSLKPEDTAVYYCAVEPEYKYYEGDYWGQGTQVTVSS”, the “polyreactivity (PSR sort gate)” value was “low polyreactivity”.

As to “QVQLVESGGRLVQAGGSLRLSCAASGNILRFNALGWYRQAPGKEWQLVAAISRSGGTTYFADSVKGRFTISRDTAKNTVYLQMNSLKPEDTAVYYCAARSRYGESPGYYWGQGTQVTVSS”, the “polyreactivity (PSR sort gate)” value is “high polyreactivity”.

In the case of “QVQLVESGGRLVQAGGSLRLSCAASGRIFGPYVMGWYRQAPGKERELFAAISTSGTYTYYADSVNGRFTISPDNAKNTVYLQMNSLKPEDTAVYYCAKRSGARHRLMDYWGQGTQVTVSS”, the “polyreactivity (PSR sort gate)” value was “low polyreactivity”.

In the case of “QVQLVESGGRLVQAGGSLRLSCAASGRIFLSYAMGWYRQAPGKERELVAAISRSGGRTYYADSVKGRFTISRDNAKNTVYLQMNSLKPEDTAVYYCNVVVYVLRHYLRYDYWGQGTQVTVSS”, the “polyreactivity (PSR sort gate)” value is recorded as “high polyreactivity”.

With “QVQLVESGGRLVQAGGSLRLSCAASGRIFNHYAMGWYRQAPGKERELVAAIDRSGGSTYYADSVKGRFTISRDNAKNTVYFQMNSLKPEDTAVYYCNARRIIAKYGYWGQGTQVTVSS”, the “polyreactivity (PSR sort gate)” value is “high polyreactivity”.

On to “QVQLVESGGRLVQAGGSLRLSCAASGRIFRRYAMGWYRQAPGKERELVATINSGGTTNYADSVKGRFTISRDNAKNTVYLQMNSLKPEDTAVYYCNARSARYSGFDYWGQGTQVTVSS”, for which the “polyreactivity (PSR sort gate)” value is listed as “high polyreactivity”.

On to “QVQLVESGGRLVQAGGSLRLSCAASGRISPYAMGWYRQAPGKERELVAAISSRGGRTYYADSVKGRWTISRDNAKNTVYLEMNSQKPEDTAVYYCAVYPRSTLRTFQRDYWGQGTQVTVSS”, for which the “polyreactivity (PSR sort gate)” value is “high polyreactivity”.

Consider “QVQLVESGGRLVQAGGSLRLSCAASGSIFAVNTMGWYRQAPGKERELVAAISQRGSSTYYADSVKGRFTISRDNAKNTVYLQMNSLKPEDTAVYYCAKRFIYGRYNYWGQGTQVTVSS”, for which the “polyreactivity (PSR sort gate)” value is recorded as “high polyreactivity”.

On to “QVQLVESGGRLVQAGGSLRLSCAASGSIFDAYAMGWYRQAPGKERELVAAITTVGSTNYADSVKGRFTISRDNAKNTVYLQMNSLKPEDTAVYYCNADCNTDIVPTPYDYWGQGTQVTVSS”, for which the “polyreactivity (PSR sort gate)” value is “low polyreactivity”.

Regarding “QVQLVESGGRLVQAGGSLRLSCAASGSIFPGNAMGWYRQAPGKDREYVGAISWSGGSTNYADSVKGRFTISRDNAKYTVYLQMNSLKPEDTAVYYCAKRFVRLDPTTQLYGKAYEYWGQGTQVTVSS”, the “polyreactivity (PSR sort gate)” value is reported as “high polyreactivity”.

Turning to “QVQLVESGGRLVQAGGSLRLSCAASGSIFVHNAMGWYRQAPGKERDLVAANTWSGGSTYYADSVKGRFTISRDNAKNTVYLQMNSVKPEDTAVYYCAAEDVAAQWAYESPTSYWYYYWGQGTQVTVSS”, the “polyreactivity (PSR sort gate)” value is reported as “low polyreactivity”.
